We go through two molecules from patent US7078507 (US Dept. of Health and Human Services, dated 2006).

Residue numbers refer to the chain shown, from its start.

For experiment [1], the target named is T1, erythrocytes (red blood cells) carrying the EBA-175 receptor glycophorin A (human, UniProt P02724 20-150, sialic acid residues (removed by neuraminidase treatment in FIG. 12)).
T1 construct: whole, on cells; The assays used whole erythrocytes; also called RBC; human RBCs
T1 sequence: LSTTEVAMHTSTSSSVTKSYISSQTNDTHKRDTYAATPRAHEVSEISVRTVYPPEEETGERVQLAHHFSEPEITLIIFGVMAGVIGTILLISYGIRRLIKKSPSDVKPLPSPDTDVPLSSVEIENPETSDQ
Briefly: erythrocyte binding assay.

Experiment [2] addresses T1, erythrocytes (red blood cells) carrying …. Put plainly: erythrocyte binding assay with human RBCs with or without neuraminidase treatment, immunoblot read-out.

B1: Pichia pastoris-expressed recombinant EBA-175 region II (RII) protein, N-glycosylated (ligand)
chain: GRNTSSNNEVLSNCREKRKGMKWDCKKKNDRSNYVCIPDRRIQLCIVNLSIIKTYTKETMKDHFIEASKKESQLLLKKNDNKYNSKFCNDLKNSFLDYGHLAMGNDMDFGGYSTKAENKIQEVFKGAHGEISEHKIKNFRKKWWNEFREKLWEAMLSEHKNNINNCKNIPQEELQITQWIKEWHGEFLLERDNRSKLPKSKCKNNTLYEACEKECIDPCMKYRDWIIRSKFEWHTLSKEYETQKVPKENAENYLIKISENKNDAKVSLLLNNCDAEYSKYCDCKHTTTLVKSVLNGNDNTIKEKREHIDLDDFSKFGCDKNSVDTNTKVWECKKPYKLSTKDVCVPPRRQELCLGNIDRIYDKNLLMIKEHILAIAIYESRILKRKYKNKDDKEVCKIINKTFADIRDIIGGTDYWNDLSNRKLVGKINTNSNYVHRNKQNDKLFRDEWWKVIKKDVWNVISWVFKDKTVCKEDDIENIPQFFRWFSEWGDDYCQDKTKMIETLKVECKEKPCEDDNCKRKCNSYKEWISKKKEEYNKQAKQYQEYQKGNNYKMYSEFKSIKPEVYLKKYSEKCSNLNFEDEFKEELHSDYKNKCTMCPEVKDVPISIIRNNEQTS
modifications: about 1 of 5 putative N-glycosylation sites occupied (Man14-16GlcNAc2) when expressed in P. pastoris
notes: also called EBA-175 RII; P. pastoris derived EBA-175 RII protein
Take B1: in experiment [1], the binding result is reported as “binds”.

B2: Non-N-glycosylated EBA-175 RII protein (RII-N-Gly-) expressed in Pichia pastoris (ligand)
chain: B1 chain with N3Q, S50A, S195A, T206A, N400Q
notes: also called mutated RII protein; non-N-glycosylated RII
Turning to B2, the binding result in experiment [2] is “binds”.
